Test: soluble on expression in E. coli; label from the status in PepcDB or PDB records
For “MAHHHHHHMSMKKKMTKPFRTVVHLPVEEARGAIVRMIRRHNAVVIVGETGSGKTTQIPQYVWDDLVSREPPEQQGIVGCTQPRRVAAVSIARHVAKQRGGSVGAEVAYAVRFDDTCSRQTKIKYMTDGILLREIQTDPDLSHYRCLLLDEAHERTLHGDVLFGLLKDIVRRRKKTLTIVVMSATLNAEHFSKFWWNAPIGVVHGRLYPVTIFHTVEPQADYVEAAVSTLLQIHEKEEPGDVLCFLTGQEEIEDAKRILERRMKVMPSTLQEFMILTLYSAMPYEQQLRVFEPPLPGKRRIILSTNIAETSITVEGIRYVVDSGVVKAKFFSSKSGMEVLSEVDVSKAQATQRAGRAGRMTAGKCFRLYTAQAFESLAENTVPEIQRSSLISVVLEMKSLRIDRIMDFEFMDAPNPKAVVRAEETLMLLGALDRQGHITRLGQRLIDFPIEPMAAIVLLAGKALGVERDVTIAISMTMTENLFFTSREAKDGADRCKAAFAKSAGDHATLLGIYYAYKRVPKDQRKMWCESNAVNPSQMLKAEDVMTQLGAILNEHSDEELLSTMVRRSPNLAGNGAALHRKRRRDSEKDASGDDETSELLKGQTSGMVKLRDFELIRRALCYGFSLNAAFYNAKIGNYQTVVGQQVVHLHPSSVLFYQRKKPALVVFNSVVRTTRRYMKDVSVVQEEWLRDAASFLRPVA”, the “soluble on expression in E. coli” value was “not soluble”.
With “MAHHHHHHMGTLEAQTQGPGSMNIDAISIGSNPPEDVNVIIEVPVGGQPIKYEMDKKAGALIVDRFLYTPMTYPGNYGFVPHTLSEDGDPIDVLVCNTRPLIPGCVINVRPIGVLVMEDNSGKDEKIIAVPSPHLTRRYEKIHDYTDMPEITLKQIAHFFEHYKDLEPGKWVKIGDWGDEDYARKFIVEAIERAKGK” the “soluble on expression in E. coli” value was “soluble”.
For “GPGSMSLVESQKGMTDLIPCNEQCGGDYGNYSFGQGDLDVTVTVPLPENTTKKMLLVQITASKLIVGLRGKPPIISGDFYRPVKASECTWCIEDKRLLVINMVKTNSQHEEWWPCVVVGERQIDMKTLKPPSKHVSELDESAQATIAKMMFDQRQKMQNLPTSEEMRLQEMMRAAQGAK”, the “soluble on expression in E. coli” value was “soluble”.
In the case of “QLGMKGYADTIDRQRMQTQAQFVLEKMSREIRHAVPNSFHVPTGSTNCLEFMPIEYSGFYTLTNNNLEFLLGNDSTLNPIPADRWMVINPSRYEDLQSASPQSLAVGNLAKTGD”, the “soluble on expression in E. coli” value is reported as “not soluble”.
With “MQERILFGTYTKKTSQGIYQGTLDTTAKTLTNDGLLAATQNPTYLALSAKDCLYSVDKEDDEGGIAAWQIDGQTAHKLNTVVAPGTPPAYVAVDEARQLVYSANYHKGTAEVMKIAADGALTLTDTVQHSGHGPRPEQDGSHIHYTDLTPDNRLAVIDLGSDKVYVYNVSDAGQLSEQSVLTMEAGFGPRHLVFSPDGQYAFLAGELSSQIASLKYDAQTGAFTQLGIVKTIPADYTAHNGAAAIRLSHDGHFLYVSNRGYNTLAVFAVTADGHLTLIQQISTEGDFPRDFDLDPTEAFVVVVNQNTDNATLYARDLTSGKLSLLQKDVTVPEGVCVRFLEHHHHHH” the “soluble on expression in E. coli” value was “soluble”.
With “MSLIRWCFTMKLAVIGGGDLQDSNHSPINERLIELTNKQYPKVLFIPTASHDDESYIKLFLDTFEKQLHCDVQILGIIADTPSKYEIDEMIQSADLIYLGGGNYIQMVTEWKEHKLDEKLLLALEQGTLIAGYSAGAMCWFTSSIRSDYEGSGYIESNGWGIVNKRFCPHYNQLNRMNAFHSFLQNHQGNIEGIALEDNCALYITEESFEIIGEPEKAWEFYMSDNKLIRQHFDITLKSYLEGHHHHHH” the “soluble on expression in E. coli” value was “not soluble”.
With “MLEALKTANKTVGMKQSLKAVESLKAKQVFIAKDADEHVVARIKELCIKNNIPIVYVDTMKQLGKACNIDVGASVACLL” the “soluble on expression in E. coli” value was “not soluble”.
For “MGHHHHHHSHMANSAGSMANSAGSMHLVVESFPSYRDVTLFEGKRVSFYKRAQILVADTWSVLEGKGDGCFKDISSITMFADYRLPQVLAHLGALKYSDDLLKKLLKGEMLSYGDRQEVEIRGCSLWCVELIRDCLLELIEQKGEKPNGEINSILLDYYLWDYAHDHREDMKGIPFHRIRCIYY”, the “soluble on expression in E. coli” value was “not soluble”.
In the case of “MAVTDLSLTNSSLMPTLNPMIQQLALAIAASWQSLPLKPYQLPEDLGYVEGRLEGEKLVIENRCYQTPQFRKMHLELAKVGKGLDILHCVMFPEPLYGLPLFGCNIVAGPGGVSAAIADLSPTQSDRQLPAAYQKSLAELGQPEFEQQRELPPWGEIFSEYCLFIRPSNVTEEERFVQRVVDFLQIHCHQSIVAEPLSEAQTLEHRQGQIHYCQQQQKNDKTRRVLEKAFGEAWAERYMSQVLFDVIQ”, the “soluble on expression in E. coli” value is reported as “soluble”.
For “MTLPIRNVAIIAHVDHGKTTLVDALLKQSGIFREGEDVPDCVMDSNALERERGITILSKNTAVRYKETLINIVDTPGHADFGGEVERVLGMVDGCLLIVDANEGPMPQTRFVLKKALEKGLRPIVVVNKIDRGQADPHVAVDKVLDLFLELGADEDQCDFPYLFASGMGGYAKENLEAESVDMQPLFDAILRHVPAPVGDPNKPLQLQVTTLDYSEYLGRIVIGRIHNGTIRAGQQAALVVEDGSIVKGKITKLMGFEGLKRVEMTEATAGYIVAVAGFADAYIGETITDPNEPQALPLIKVDEPTLQMTFWVNDSPFAGQEGKLVTSRQVRDRLFRELETNVALRVEETDSPDKFLVSGRGELHLGILIETMRREGFEFQVSQPQVIYRTVNGQPCEPYELLVLDVPADAVGSCIERLGQRKGEMQDMQPVAGDRTQLEFVIPARGLIGFRGEFMRMTRGEGIMNHSFLDYRQLSGDIEARNKGVLISFEEGISTFYAMKNAEDRGSFFITPGTKVYRGMIVGEHNRPQDLELNVCKTKQLTNHRASGGDELVQLQAPVDMSLERALEYIGPDELVEVTPQSIRLRKMAKKLAKR”, the “soluble on expression in E. coli” value was “not soluble”.
In the case of “MPTPEDVPMDENDAGRVAEGSQDESKTPSREVLKKLLNEVEMAEMEENEMWYLISQKWWNSLIKAVRDGFVDDVGPIDNSQISECRNGSFFLKQRLAEQVDYTPVPEILFKRLERFYHIDDDRRDYIQRRVVRKDGKLCIEVYPRIVHITSARNRDIKADLVLRPDDTMVSLRERVIGELSLSTTDNIRFYVMNGENYELIDTAQSIDSYFDTVQKVVVDVEEDGEFFIKGKSATPKSLFGTQSSSSHGGNGISNSYNSPSPSTGVVTRTTPGACGLSNLGNTCFMASAFQCLSNMPPLREYFLANTYQNDINEDNPLGTHGHLAMAVGELMKGMWSGDYASINPRKFKSIIGQFAPRFNGYSQQDAHELMAYVLDGLHEDLNRIKKKPYIEDSDEDAKLPEAEYAAKSWEVYKMRNDSIIVDTLHGQLKSTLICPVCEKISIKFDPFGYLSLPLPPKEQIVKQTVIVMFLTRKWAKFSLGITDTTTVEEAERLMLDKLQPEQQHHFVFFHVPSQYHDDITMMRPGDRVRMPGREVYVAEVEHDLQVKGTRLFVAYNRIKLVRSASLPMIYSLPTGYPLTRGFLNDHVFSTTKHFFINPKAVAELGGGNSNDDDSMSGSNSADEREPYKLFVGPPGSTASLPIPPTDDPIPFPDENSHDIYSNFLQIVFQWKDLKIFNQYKGNELIEREMTVSTRRKVLLQETLDWFTTKEQLGEQDSWYCPQCKKHERATKQLALWKLPEILILHLKRFQYTKWSREKLTWEVVIPVRGLDLTDKVANPNHEKAIYDLIAVSRHYGSLSGGHYTAIGYNDREQKWFDFNDSSANPTYPPAEPYESSDPYILVYRRRKLDSNGKPIEPSAVSESLHSRPKRGAAPTISSATSSASSSRHQVDENMEMEED”, the “soluble on expression in E. coli” value is reported as “not soluble”.
For “MSQHLVPEAKNGLSKFKNEVANEMGVPFSDYNGDLSSRQCGSVGGEMVKRMVEKYEQSMK”, the “soluble on expression in E. coli” value was “soluble”.
In the case of “MSIYKIPLPLNILEAARERITWTLNTLPRVCVSFSGGKDSGLMLHLTAELARQMGKKICVLFIDWEAQFSCTINYVQSLRELYTDVIEEFYWVALPLTTQNSLSQYQPEWQCWEPDVEWVRQPPQDAITDPDFFCFYQPGMTFEQFVREFAEWFSQKRPAAMMIGIRADESYNRFVAIASLNKQRFADDKPWTTAAPGGHSWYIYPIYDWKVADIWTWYANHQSLCNPLYNLMYQAGVPLRHMRICEPFGPEQRQGLWLYHVIEPDRWAAMCARVSGVKSGGIYAGHDNHFYGHRKILKPEHLDWQEYALLLLNSMPEKTAEHYRNKIAIYLHWYQKKGIEVPQTQQGDIGAKDIPSWRRICKVLLNNDYWCRALSFSPTKSKNYQRYNERIKGKRQEWGILCNND”, the “soluble on expression in E. coli” value is reported as “not soluble”.

From the DeepSol protein solubility set
